Measurements from PMC6747193.

Target: C1QBP Recombinant Human Protein (gC1q-R) (human) (UniProt Q07021)
Assay: ELISA; solid-phase microplate competition: gC1q-R coated on wells; polyclonal antibodies against gC1q-R amino acids 76-104 or 221-249 added at 4 µg/mL 1 h before idInlB at 0.4 µg/mL; idInlB without antibodies as positive control; bound idInlB detected with anti-His polyclonal antibody

Sequence of UniProt Q07021 (Q07021 74-282): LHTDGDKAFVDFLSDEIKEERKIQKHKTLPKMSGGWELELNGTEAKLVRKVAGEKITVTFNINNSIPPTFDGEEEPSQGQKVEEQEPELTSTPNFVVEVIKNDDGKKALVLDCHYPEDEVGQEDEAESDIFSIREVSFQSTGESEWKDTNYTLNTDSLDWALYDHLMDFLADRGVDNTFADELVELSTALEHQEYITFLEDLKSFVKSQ

In the case of “InlB internalin domain isoform idInlB9 (lineage I, from L. monocytogenes strain VIMHA015) (from UniProt P0DQD2 36-321) (domain or fragment)”, the fold decrease of binding with the antibody against gC1q-R amino acids 76-104, against idInlB9 without antibody is reported as 1.6 fold and the fold decrease of binding with the antibody against gC1q-R amino acids 221-249, against idInlB9 without antibody is reported as 1.25 fold.
